Test results from patent US20120088722A1.
Ends that are not written are not given here.

Tests used:
[1] = target: extracellular matrix of whole cell primary chondrocyte cultures; test: fluorescent peptide binding to extracellular matrix of hypertrophic chondrocyte monolayer cultures, reference scrambled peptide
[2] = target: hypertrophic cartilage tissue extract; test: fluorescent peptide (100 nM) binding to plate-dried cartilage CHAPS extract, reference scrambled peptide
[3] = target: resting cartilage tissue extract; test: as above

Row | fold binding over scrambled peptide control [3] [fold] | Binder | fold binding compared to scrambled peptide [1] [fold] | fold binding over scrambled peptide control [2] [fold]
1 | < 2 | LRGETMIFKD (also: fluorescent label (label and position not given here)) [MMP13-10 peptide (amino acids 17-26 of SEQ ID NO: 1)] | 4 | < 2
2 | 5 | ELGLPKEVKKISAAVHFED (also: fluorescent-labeled in binding assay, label and position not given here) [MMP13-19 peptide (amino acids 93-111 of SEQ ID NO: 1)] | 8 | 9
